These results are taken from patent publication US20170096474A1 (published 2017).

For assay [1], the target named is T1, Botulinum neurotoxin type B, subtype B1 (BoNT/B1) (Clostridium botulinum, UniProt P10844 2-1291).
T1 sequence: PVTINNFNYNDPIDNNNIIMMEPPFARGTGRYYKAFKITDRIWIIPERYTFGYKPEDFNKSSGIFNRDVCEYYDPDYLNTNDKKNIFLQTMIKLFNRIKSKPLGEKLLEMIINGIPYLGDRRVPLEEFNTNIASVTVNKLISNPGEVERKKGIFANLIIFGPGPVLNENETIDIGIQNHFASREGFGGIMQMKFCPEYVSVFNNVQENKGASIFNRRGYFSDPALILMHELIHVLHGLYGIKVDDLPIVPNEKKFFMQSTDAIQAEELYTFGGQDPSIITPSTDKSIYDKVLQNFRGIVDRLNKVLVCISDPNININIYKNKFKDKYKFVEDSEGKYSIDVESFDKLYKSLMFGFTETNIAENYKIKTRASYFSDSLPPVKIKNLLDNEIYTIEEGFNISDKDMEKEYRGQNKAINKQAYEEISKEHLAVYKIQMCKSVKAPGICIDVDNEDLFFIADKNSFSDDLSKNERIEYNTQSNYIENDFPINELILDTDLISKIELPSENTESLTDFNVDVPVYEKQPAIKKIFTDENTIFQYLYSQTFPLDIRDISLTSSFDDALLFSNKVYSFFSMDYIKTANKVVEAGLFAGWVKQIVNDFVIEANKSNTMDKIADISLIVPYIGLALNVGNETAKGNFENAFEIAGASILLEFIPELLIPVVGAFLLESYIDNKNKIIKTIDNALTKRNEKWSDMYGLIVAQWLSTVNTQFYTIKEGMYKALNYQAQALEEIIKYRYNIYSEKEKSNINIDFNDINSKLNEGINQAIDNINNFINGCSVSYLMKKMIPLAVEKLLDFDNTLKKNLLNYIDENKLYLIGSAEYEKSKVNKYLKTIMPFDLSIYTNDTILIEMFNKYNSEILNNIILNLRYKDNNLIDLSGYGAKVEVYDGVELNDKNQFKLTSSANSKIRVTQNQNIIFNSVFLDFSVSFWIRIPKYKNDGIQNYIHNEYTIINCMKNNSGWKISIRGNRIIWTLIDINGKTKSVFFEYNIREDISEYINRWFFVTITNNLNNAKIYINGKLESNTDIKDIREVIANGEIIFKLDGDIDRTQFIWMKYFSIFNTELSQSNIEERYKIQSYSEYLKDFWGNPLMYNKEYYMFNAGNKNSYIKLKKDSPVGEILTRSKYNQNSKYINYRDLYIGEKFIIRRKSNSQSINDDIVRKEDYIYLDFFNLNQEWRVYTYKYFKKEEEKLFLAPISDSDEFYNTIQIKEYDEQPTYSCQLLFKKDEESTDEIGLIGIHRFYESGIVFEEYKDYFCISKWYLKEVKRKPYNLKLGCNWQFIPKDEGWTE

Assay [2] has as its target T2, BoNT/B translocation domain (HN), yeast displayed (Clostridium botulinum, UniProt P10844 442-857).
T2 sequence: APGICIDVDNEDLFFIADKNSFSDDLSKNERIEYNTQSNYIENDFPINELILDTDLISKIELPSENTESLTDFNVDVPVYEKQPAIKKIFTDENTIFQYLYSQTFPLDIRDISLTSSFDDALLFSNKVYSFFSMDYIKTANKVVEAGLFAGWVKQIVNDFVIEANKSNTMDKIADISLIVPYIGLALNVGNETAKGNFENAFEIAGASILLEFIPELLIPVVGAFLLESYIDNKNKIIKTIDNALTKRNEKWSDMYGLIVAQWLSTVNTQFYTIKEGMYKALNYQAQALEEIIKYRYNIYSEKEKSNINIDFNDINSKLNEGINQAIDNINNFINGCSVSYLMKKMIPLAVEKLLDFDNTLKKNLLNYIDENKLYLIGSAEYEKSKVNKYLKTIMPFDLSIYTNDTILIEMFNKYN
Nature of the assay: soluble scFv or IgG on yeast-displayed BoNT/B domains.

The target of assay [3] is Botulinum neurotoxin type B, subtype B2 (BoNT/B2) (Clostridium botulinum). Nature of the assay: flow cytometry, yeast-displayed Fab against yeast-displayed scFv. On the technique in general: In flow cytometry, cells or beads pass a laser one at a time.
For assay [4], the target named is T1, Botulinum neurotoxin type B, subtype B1 …. Nature of the assay: flow cytometry, yeast-displayed Fab.
Assay [5] has as its target T3, BoNT/B light chain (LC), yeast displayed (Clostridium botulinum, UniProt P10844 1-441).
T3 sequence: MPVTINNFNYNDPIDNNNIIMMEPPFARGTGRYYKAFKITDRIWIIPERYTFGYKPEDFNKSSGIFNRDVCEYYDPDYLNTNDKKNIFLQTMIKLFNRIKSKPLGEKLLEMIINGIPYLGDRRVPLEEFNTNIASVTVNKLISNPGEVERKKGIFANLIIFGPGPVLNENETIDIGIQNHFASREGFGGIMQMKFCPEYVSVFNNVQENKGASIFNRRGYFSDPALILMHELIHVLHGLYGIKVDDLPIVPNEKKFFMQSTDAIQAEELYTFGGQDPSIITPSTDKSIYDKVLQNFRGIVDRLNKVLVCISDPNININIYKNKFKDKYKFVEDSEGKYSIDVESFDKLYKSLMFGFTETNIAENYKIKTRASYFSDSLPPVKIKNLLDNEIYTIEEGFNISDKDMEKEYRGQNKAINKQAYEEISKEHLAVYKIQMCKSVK
As to the kind of experiment: labeled detection mAb in flow cytometry sorting.

In assay [6] the target is T2, BoNT/B translocation domain (HN), yeast …. Nature of the assay: IgG/Fab on yeast-displayed toxin domain, flow cytometry.
For assay [7] the target is unchanged. As to the kind of experiment: yeast-displayed scFv.
Assay [8] concerns the target T3, BoNT/B light chain (LC), yeast displayed. Nature of the assay: yeast-displayed scFv.
For assay [9] the target is unchanged. Nature of the assay: soluble scFv or IgG on yeast-displayed BoNT/B domains.

B1: 4B19.1 IgG (antibody, V domains shown)
VH: QVQLVQSGAEVKKPGASVNVSCKASGYTFTGYYIYWVRQAPGQGLEWMGWINPNSGVTKYAQKFQGRVTMTIDTSTNTAYMELNRLRADDTAVYYCAREWTQLWSPYDYWGQGTTVTVSS
VL: DIVLTQSPSTLSASVGDRVTISCRASRSIGWYLNWYQQRPGKAPKLLIYAASSLHNGVPSRFSGSGSGTEFTLTISSLQPDDFATYYCQQAFGFPRTFGQGTKVEIKR
B1: the “fold increase in affinity, IgG against parental scFv” value in assay [1] came to 2.25 fold.

B2: 1B18 scFv (scFv)
scFv: EVQLVQSGGGLVQPGGSRRLSCAASGFYFNAYWMTWVRQAPGKGLEWVANINLDGTEIYYLDSVKGRFTVSRDNVKNSVFLQMSSLRVEDTAVYFCARLEWGGRNGWVSPWGQGTLVTVSSGGGGSGGGGSGGGGSDVVMTQSPSSVSASVGDRVTITCRASQSISSYLNWYQQRPGKAPKLLIFAASSLQSAVPSRFSGSGSGTDFTLTISSLQPEDFATYYCQQSYSTPPTFGQGTKVEIK
Take B2: the binding result in [2] is on record as “binds”.

B3: B11 Fab (Fab, V domains shown)
VH: QVQLLQSAGGVVQPGRSLRLSCAASGFIFRTYGMHWVRQAPGKGLEWVAFVSSDGNNKFYSDSVKGRFTIPRDNAKNTLYLQMNSLETEDTAVYYCAKDRYPIDCSGGSCFSYGMDVWGQGTTVTVSS
VL: DIVMTQSPSTLSASVGDRVTVTCRASQSINSWLAWYQQKPGKAPKLLIYEASSLESGVPSRFSGSGSGTEFTLTISSLQPDDFATYYCQQYDSYWLTFGGGTKVEIKR
For the molecule B3, in [3], the fold higher affinity than the scFv came to 1.46 fold.

B4: B6 Fab (Fab, V domains shown)
VH: QVQLVQSGAEVKKPGESLVISCKASGDKDTFTSFWIAWVRQMPGKGLEWMGIIYAGDSDTRYSPSFQGHVNISVDRSTNTAYLQWSSLKASDTAMYYCARHDSRYKYFYFGMDVWGQGTTVTVSS
VL: DVVMTQSPSSLSASVGDRITITCQAGQDISNFLNWYQQKPGKAPKLLIRDASNLETGVPSRFSGGGSGTHFTFTISSLHPEDIATYFCQQYDNLPYTFGQGTKLEIKR
Take B4: in assay [4], the binding result is “binds”.

B5: A12 IgG (antibody, V domains shown)
VH: EVQLVESGGGVVQPGRSLRLSCAASGFTFSSYGMHWVRQAPGKGLEWVAVIWYDGSNKYYADSVKGRFTISRDNSKNTLYLQMNSLRAEDTAVYYCARGYSNYDYYYGMDVWGQGTTVTVSS
VL: DIQMTQSPSSLSASVGDRVTITCRASQRISNYLNWYQQKPGKAPKLLIYAASSLQSEVPSRFSGSGSGTDFTLTISSLQPEDFATYYCQQSYRPPLTFGGGTKVEIKR
Take B5: the binding result in assay [5] is given as “binds”.

B6: 4E17.1 IgG (antibody, V domains shown)
VH: EVQLVRSGGNLVQPGGSLRLSCAATGPIGSHWMTWVRQAPGQGLEWVANINLDGTEKFYVDSVKGRFTVSRDNRKSSVFLQMNNLRVDDTAVYYCARLQWGGYNGWLSPWGQGTLVTVSS
VL: DIVMTQSPSSLSASVGDRVTISCRASQSIRHYVNWYQQKPGKAPKLLIYKASSLASGAPSRFSGSGSGTDFTLTISSLQPDDFATYYCQQSYSIPLTFGGGTKVEIKR
Take B6: the binding result in [6] is “binds”.

B7: 6A12 IgG (antibody, V domains shown)
VH: QVQLVESGGGVVQPGRSLRLSCAASGFTFSSYGMHWVRQAPGKGLEWVSYISSSGSTIYYADSVKGRFTISRDNAKNSLYLQMNSLRAEDTAVYYCARVSIVGGPYGMDVWGQGTTVTVSS
VL: DIQMTQSPSSVSASVGNRVTITCRASQGISSWLAWYQQKPGKAPKLLIYAASSLQSGVPSRFSGSGSGTDFTLTISSLQPEDFATYYCQKANSFPLTFGGGTKMEIKR
With B7, in [5], the binding result is recorded as “binds”.

B8: B11 scFv (scFv)
scFv: QVQLLQSAGGVVQPGRSLRLSCAASGFIFRTYGMHWVRQAPGKGLEWVAFVSSDGNNKFYSDSVKGRFTIPRDNAKNTLYLQMNSLETEDTAVYYCAKDRYPIDCSGGSCFSYGMDVWGQGTTVTVSSGGGGSGGGGSGGGGSDIVMTQSPSTLSASVGDRVTVTCRASQSINSWLAWYQQKPGKAPKLLIYEASSLESGVPSRFSGSGSGTEFTLTISSLQPDDFATYYCQQYDSYWLTFGGGTKVEIK
On to B8, for which the binding result in [7] is “binds”.

B9: 1B11 scFv (scFv)
scFv: B8 scFv
Consider B9, for which, in assay [2], the binding result is given as “binds”.

B10: B6 scFv (scFv)
scFv: QVQLVQSGAEVKKPGESLVISCKASGDKDTFTSFWIAWVRQMPGKGLEWMGIIYAGDSDTRYSPSFQGHVNISVDRSTNTAYLQWSSLKASDTAMYYCARHDSRYKYFYFGMDVWGQGTTVTVSSGGGGSGGGGSGGGGSDVVMTQSPSSLSASVGDRITITCQAGQDISNFLNWYQQKPGKAPKLLIRDASNLETGVPSRFSGGGSGTHFTFTISSLHPEDIATYFCQQYDNLPYTFGQGTKLEIK
As for B10, the binding result in assay [8] is recorded as “binds”.

B11: 2B29 scFv (scFv)
scFv: QVQLQESGPGLVKPSETLSLTCSVSGGSINSGTYYWTWIRQHPGKGLEWIGYIYYSGTTYYNPSLKSRVSMSVDTSKNLFSLKMNSVTAADTALYYCARGNPQYDTSGSYTGLYFDFWGQGTLVTVSSGGGGSGGGGSGGGGSQPVLTQSPSASGTPGQRVTISCSGSSSNLGSNTVSWYQQLPGTAPKLLIYSNNQRPSGVPDRFSGSKSGTSASLAISGLQSEDEADYYCATWDDSLSGGVFGGGTKLTVL
Take B11: the binding result in assay [9] is on record as “binds”.
